Data from patent US20230374458A1, “COMPOSITIONS AND METHODS FOR GENERATING HUMAN YOLK SAC-LIKE HEMATOPOIETIC CELLS” (UNIVERSITY HEALTH NETWORK, priority 2020, published 2023).

Columns and labels:
[1] = system: H1 human embryonic stem cell (hESC) line; test: Induction of KDR+CD235a/b+ mesoderm from H1 hESCs (Activin A titration, flow cytometry); type: cell-based
Description: (§1) hPSC differentiation to the hematopoietic lineage was performed in StemPro-34 media supplemented with penicillin/streptomycin (1%, ThermoFisher), L-glutamine (2 mM, ThermoFisher), ascorbic acid (50 μg/mL, Millipore Sigma), transferrin (150 μg/mL, ROCHE), monothioglycerol (50 μg/mL, Millipore Sigma) and other stage-specific factors for example as described below. Differentiation cultures were maintained in hypoxic conditions (37° C., 5% CO2, 5% O2) unless otherwise indicated. On day 0, hPSC cultures at 80-90% confluency were treated with TrypLE for 3 minutes at 37° C. Thereafter, the 80-90% of the TrypLE was aspirated and the cultures were incubated at 37° C. for an additional 2 minutes. […]
(§2) EBs prior to day 9 of differentiation, monolayer cultures and cultures aggregated after cell sorting were dissociated with Trypsin (Corning) for 5 minutes at 37° C. […] For fluorescence-activated cell sorting (FACS), cells were stained, sorted and collected in StemPro-34 media supplemented with penicillin/streptomycin (1%), L-glutamine (2 mM) and DNaseI. […] Thereafter, the sorted cells were counted and resuspended at 250,000 cells/mL in StemPro-34 media supplemented with recombinant factors appropriate for the day of differentiation. […]

CHOPWT10 human iPSC line = test: Induction of KDR+CD235a/b+ mesoderm from CHOPWT10 iPSCs (Activin A titration, flow cytometry); type: cell-based
Description: as §1, §2

B1: Activin A: activin receptor agonist; human Activin A (Uniprot accession number: P08476), recombinant, from R&D Systems (protein, UniProt P08476 311-426, looked up)
Inhibin beta A chain: GLECDGKVNICCKKQFFVSFKDIGWNDWIIAPSGYHANYCEGECPSHIAGTSGSSLSFHSTVINHYRMRGHSPFANLKSCCVPTKLRPMSMLYYDDGQNIIKKDIQNMIVEECGCS
- proportion of KDR+CD235a/b+ cells ([1]; 6 ng/mL Activin A with 10 ng/mL BMP4 and 5 ng/mL FGF2, day 4 of differentiation, H1): greater than 30%
- frequency of CD235a/b+ cells ([1]; Activin A 0 to 10 ng/mL with BMP4 10 ng/mL and FGF2 5 ng/mL from day 1 of differentiation): increased in an Activin A dose-dependent manner and plateaued when its concentration exceeded 6 ng/mL
- proportion of KDR+CD235a/b+ cells (CHOPWT10 human iPSC line; 2 ng/mL Activin A, CHOPWT10 human iPSC line, day 4): greater than 30%
- proportion of KDR+CD235a/b+ cells at day 4 of differentiation (CHOPWT10 human iPSC line; 2 or 4 ng/mL Activin A within 0 to 10 ng/mL titration, with BMP4 10 ng/mL and FGF2 5 ng/mL, days 1 to 4): highest proportion
